Wt/L858R, EGFR-Wt mean and EGFR-L858R mean data for six molecules are collected here from US9958461B2, “Detection of protein to protein interactions” (THE GOVERNING COUNCIL OF THE UNIVERSITY OF TORONTO, priority 2013, dated 2018).

The test system of test [1] is EGFR-Wt. Description: MaMTH EGFR-interactor screen, lentiviral preys against EGFR-wildtype bait (interaction score). The format is cell-based, human. The note with it: ratio of EGFR-Wt mean to EGFR-L858R mean interaction score. In a few lines: (§1)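 5×GAL4UAS-luciferase HEK293T reporter cells were lentivirally infected with preys (MOI ~0.3-0.4) and puromycin-selected ≥48 h. They were then transfected in triplicate with the EGFR bait, and luciferase was read 24 h later. Score is fold-change over averaged negative-control preys; >1 denotes interaction.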

Test [2] has as its target T1, EGFR-Wt (Homo sapiens, UniProt P00533).
T1 construct: with the advantage of testing full-length integral membrane proteins; (GGGGS)2 linker-Cub (human ubiquitin aa 35-76)-GAL4(1-147)-mNFkB(364-550) (C); expressed in transfected cells
The test is described as above. The format is cell-based. The note with it: MaMTH interaction score of prey with EGFR-Wt bait, mean. In a few lines: as §1

Another test deals with T2, EGFR-L858R (Homo sapiens, UniProt P00533, L858R).
T2 construct: with the advantage of testing full-length integral membrane proteins; (GGGGS)2 linker-Cub (human ubiquitin aa 35-76)-GAL4(1-147)-mNFkB(364-550) (C); expressed in transfected cells
Description: MaMTH EGFR-interactor screen, lentiviral preys against EGFR-L858R bait (interaction score). The format is cell-based. Particulars: MaMTH interaction score of prey with EGFR-L858R bait. In a few lines: as §1

B1: HSPA4 (protein, UniProt P34932 1-840, looked up)
Heat shock 70 kDa protein 4: MSVVGIDLGFQSCYVAVARAGGIETIANEYSDRCTPACISFGPKNRSIGAAAKSQVISNAKNTVQGFKRFHGRAFSDPFVEAEKSNLAYDIVQLPTGLTGIKVTYMEEERNFTTEQVTAMLLSKLKETAESVLKKPVVDCVVSVPCFYTDAERRSVMDATQIAGLNCLRLMNETTAVALAYGIYKQDLPALEEKPRNVVFVDMGHSAYQVSVCAFNRGKLKVLATAFDTTLGGRKFDEVLVNHFCEEFGKKYKLDIKSKIRALLRLSQECEKLKKLMSANASDLPLSIECFMNDVDVSGTMNRGKFLEMCNDLLARVEPPLRSVLEQTKLKKEDIYAVEIVGGATRIPAVKEKISKFFGKELSTTLNADEAVTRGCALQCAILSPAFKVREFSITDVVPYPISLRWNSPAEEGSSDCEVFSKNHAAPFSKVLTFYRKEPFTLEAYYSSPQDLPYPDPAIAQFSVQKVTPQSDGSSSKVKVKVRVNVHGIFSVSSASLVEVHKSEENEEPMETDQNAKEEEKMQVDQEEPHVEEQQQQTPAENKAESEEMETSQAGSKDKKMDQPPQAKKAKVKTSTVDLPIENQLLWQIDREMLNLYIENEGKMIMQDKLEKERNDAKNAVEEYVYEMRDKLSGEYEKFVSEDDRNSFTLKLEDTENWLYEDGEDQPKQVYVDKLAELKNLGQPIKIRFQESEERPKLFEELGKQIQQYMKIISSFKNKEDQYDHLDAADMTKVEKSTNEAMEWMNNKLNLQNKQSLTMDPVVKSKEIEAKIKELTSTCSPIISKPKPKVEPPKEEQKNAEQNGPVDGQGDNPGPQAAEQGTDTAVPSDSDKKLPEMDID
For B1, the Wt/L858R in the test with EGFR-Wt [1] turned out to be 0.46. In addition, the EGFR-Wt mean in the test with EGFR-Wt [2] is reported as 1.13. Also, the EGFR-L858R mean in the test with EGFR-L858R was 2.48.

B2: TNS3 (protein, UniProt Q68CZ2 1-1445, looked up)
Tensin-3: MEEGHGLDLTYITERIIAVSFPAGCSEESYLHNLQEVTRMLKSKHGDNYLVLNLSEKRYDLTKLNPKIMDVGWPELHAPPLDKMCTICKAQESWLNSNLQHVVVIHCRGGKGRIGVVISSYMHFTNVSASADQALDRFAMKKFYDDKVSALMQPSQKRYVQFLSGLLSGSVKMNASPLFLHFVILHGTPNFDTGGVCRPFLKLYQAMQPVYTSGIYNVGPENPSRICIVIEPAQLLKGDVMVKCYHKKYRSATRDVIFRLQFHTGAVQGYGLVFGKEDLDNASKDDRFPDYGKVELVFSATPEKIQGSEHLYNDHGVIVDYNTTDPLIRWDSYENLSADGEVLHTQGPVDGSLYAKVRKKSSSDPGIPGGPQAIPATNSPDHSDHTLSVSSDSGHSTASARTDKTEERLAPGTRRGLSAQEKAELDQLLSGFGLEDPGSSLKEMTDARSKYSGTRHVVPAQVHVNGDAALKDRETDILDDEMPHHDLHSVDSLGTLSSSEGPQSAHLGPFTCHKSSQNSLLSDGFGSNVGEDPQGTLVPDLGLGMDGPYERERTFGSREPKQPQPLLRKPSVSAQMQAYGQSSYSTQTWVRQQQMVVAHQYSFAPDGEARLVSRCPADNPGLVQAQPRVPLTPTRGTSSRVAVQRGVGSGPHPPDTQQPSPSKAFKPRFPGDQVVNGAGPELSTGPSPGSPTLDIDQSIEQLNRLILELDPTFEPIPTHMNALGSQANGSVSPDSVGGGLRASSRLPDTGEGPSRATGRQGSSAEQPLGGRLRKLSLGQYDNDAGGQLPFSKCAWGKAGVDYAPNLPPFPSPADVKETMTPGYPQDLDIIDGRILSSKESMCSTPAFPVSPETPYVKTALRHPPFSPPEPPLSSPASQHKGGREPRSCPETLTHAVGMSESPIGPKSTMLRADASSTPSFQQAFASSCTISSNGPGQRRESSSSAERQWVESSPKPMVSLLGSGRPTGSPLSAEFSGTRKDSPVLSCFPPSELQAPFHSHELSLAEPPDSLAPPSSQAFLGFGTAPVGSGLPPEEDLGALLANSHGASPTPSIPLTATGAADNGFLSHNFLTVAPGHSSHHSPGLQGQGVTLPGQPPLPEKKRASEGDRSLGSVSPSSSGFSSPHSGSTISIPFPNVLPDFSKASEAASPLPDSPGDKLVIVKFVQDTSKFWYKADISREQAIAMLKDKEPGSFIVRDSHSFRGAYGLAMKVATPPPSVLQLNKKAGDLANELVRHFLIECTPKGVRLKGCSNEPYFGSLTALVCQHSITPLALPCKLLIPERDPLEEIAESSPQTAANSAAELLKQGAACNVWYLNSVEMESLTGHQAIQKALSITLVQEPPPVSTVVHFKVSAQGITLTDNQRKLFFRRHYPVNSVIFCALDPQDRKWIKDGPSSKVFGFVARKQGSATDNVCHLFAEHDPEQPASAIVNFVSKVMIGSPKKV
Consider B2, for which the Wt/L858R in the test with EGFR-Wt [1] came to 0.45. In the test with EGFR-Wt [2], this molecule came in with an EGFR-Wt mean of 1.39. In the test with EGFR-L858R, the EGFR-L858R mean worked out at 3.12.

B3: CISH (protein, UniProt Q9NSE2 1-258, looked up)
Cytokine-inducible …: MVLCVQGPRPLLAVERTGQRPLWAPSLELPKPVMQPLPAGAFLEEVAEGTPAQTESEPKVLDPEEDLLCIAKTFSYLRESGWYWGSITASEARQHLQKMPEGTFLVRDSTHPSYLFTLSVKTTRGPTNVRIEYADSSFRLDSNCLSRPRILAFPDVVSLVQHYVASCTADTRSDSPDPAPTPALPMPKEDAPSDPALPAPPPATAVHLKLVQPFVRRSSARSLQHLCRLVINRLVADVDCLPLPRRMADYLRQYPFQL
Regarding B3, in the test on EGFR-Wt [1], the Wt/L858R amounted to 0.49. Also, the EGFR-Wt mean in the test with EGFR-Wt [2] is listed as 1.29. The molecule also showed an EGFR-L858R mean in the test with EGFR-L858R of 2.66.

B4: SHC4 (protein, UniProt Q6S5L8 1-630, looked up)
SHC-transforming protein 4: MRERGQDSLAGLVLYVGLFGHPGMLHRAKYSRFRNESITSLDEGSSGGSVGNKGSPQPPHPALAPHLPTEDATLPSQESPTPLCTLIPRMASMKLANPATLLSLKNFCLGTKEVPRLKLQESRDPGSSGPSSPETSLSRSGTAPPPQQDLVGHRATALTPDSCPLPGPGEPTLRSRQDRHFLQHLLGMGMNYCVRYMGCVEVLQSMRSLDFGMRTQVTREAISRLCEAVPGANGAIKKRKPPVKFLSTVLGKSNLQFSGMNIKLTISTCSLTLMNLDNQQIIANHHMQSISFASGGDPDTTDYVAYVAKDPVNQRACHILECHNGMAQDVISTIGQAFELRFKQYLKNPSLNTSCESEEVHIDSHAEEREDHEYYNEIPGKQPPVGGVSDMRIKVQATEQMAYCPIQCEKLCYLPGNSKCSSVYENCLEQSRAIGNVHPRGVQSQRDTSLLKHTCRVDLFDDPCYINTQALQSTPGSAGNQRSAQPLGSPWHCGKAPETVQPGATAQPASSHSLPHIKQQLWSEECYHGKLSRKAAESLLVKDGDFLVRESATSPGQYVLSGLQGGQAKHLLLVDPEGKVRTKDHVFDNVGHLIRYHMDNSLPIISSGSEVSLKQPVRKDNNPALLHSNK
With B4, the Wt/L858R in the test with EGFR-Wt [1] is given as 0.47. The molecule also registered an EGFR-Wt mean in the test with EGFR-Wt [2] of 5.31. The EGFR-L858R mean with EGFR-L858R was 11.39.

B5: ARHGEF7 (protein, UniProt Q14155 1-803, looked up)
Rho guanine nucleotide …: MNSAEQTVTWLITLGVLESPKKTISDPEGFLQASLKDGVVLCRLLERLLPGTIEKVYPEPRSESECLSNIREFLRGCGASLRLELLFPPSQPPQHLVTTILLSASTFDANDLYQGQNFNKVLSSLVTLNKVTADIGLGSDSVCARPSSHRIKSFDSLGSQSLHTRTSKLFQGQYRSLDMTDNSNNQLVVRAKFNFQQTNEDELSFSKGDVIHVTRVEEGGWWEGTLNGRTGWFPSNYVREVKASEKPVSPKSGTLKSPPKGFDTTAINKSYYNVVLQNILETENEYSKELQTVLSTYLRPLQTSEKLSSANISYLMGNLEEICSFQQMLVQSLEECTKLPEAQQRVGGCFLNLMPQMKTLYLTYCANHPSAVNVLTEHSEELGEFMETKGASSPGILVLTTGLSKPFMRLDKYPTLLKELERHMEDYHTDRQDIQKSMAAFKNLSAQCQEVRKRKELELQILTEAIRNWEGDDIKTLGNVTYMSQVLIQCAGSEEKNERYLLLFPNVLLMLSASPRMSGFIYQGKLPTTGMTITKLEDSENHRNAFEISGSMIERILVSCNNQQDLQEWVEHLQKQTKVTSVGNPTIKPHSVPSHTLPSHPVTPSSKHADSKPAPLTPAYHTLPHPSHHGTPHTTINWGPLEPPKTPKPWSLSCLRPAPPLRPSAALCYKEDLSKSPKTMKKLLPKRKPERKPSDEEFASRKSTAALEEDAQILKVIEAYCTSAKTRQTLNSTWQGTDLMHNHVLADDDQPSLDSLGRRSSLSRLEPSDLSEDSDYDSIWTAHSYRMGSTSRKSCCSYISHQN
Turning to B5, the Wt/L858R with EGFR-Wt [1] is given as 0.45. The same molecule registered an EGFR-Wt mean with EGFR-Wt [2] of 1.24. The EGFR-L858R mean with EGFR-L858R is 2.76.

B6: EPS8 (protein, UniProt Q12929 1-822, looked up)
Epidermal growth factor …: MNGHISNHPSSFGMYPSQMNGYGSSPTFSQTDREHGSKTSAKALYEQRKNYARDSVSSVSDISQYRVEHLTTFVLDRKDAMITVDDGIRKLKLLDAKGKVWTQDMILQVDDRAVSLIDLESKNELENFPLNTIQHCQAVMHSCSYDSVLALVCKEPTQNKPDLHLFQCDEVKANLISEDIESAISDSKGGKQKRRPDALRMISNADPSIPPPPRAPAPAPPGTVTQVDVRSRVAAWSAWAADQGDFEKPRQYHEQEETPEMMAARIDRDVQILNHILDDIEFFITKLQKAAEAFSELSKRKKNKKGKRKGPGEGVLTLRAKPPPPDEFLDCFQKFKHGFNLLAKLKSHIQNPSAADLVHFLFTPLNMVVQATGGPELASSVLSPLLNKDTIDFLNYTVNGDERQLWMSLGGTWMKARAEWPKEQFIPPYVPRFRNGWEPPMLNFMGATMEQDLYQLAESVANVAEHQRKQEIKRLSTEHSSVSEYHPADGYAFSSNIYTRGSHLDQGEAAVAFKPTSNRHIDRNYEPLKTQPKKYAKSKYDFVARNNSELSVLKDDILEILDDRKQWWKVRNASGDSGFVPNNILDIVRPPESGLGRADPPYTHTIQKQRMEYGPRPADTPPAPSPPPTPAPVPVPLPPSTPAPVPVSKVPANITRQNSSSSDSGGSIVRDSQRHKQLPVDRRKSQMEEVQDELIHRLTIGRSAAQKKFHVPRQNVPVINITYDSTPEDVKTWLQSKGFNPVTVNSLGVLNGAQLFSLNKDELRTVCPEGARVYSQITVQKAALEDSSGSSELQEIMRRRQEKISAAASDSGVESFDEGSSH
On to B6, for which the Wt/L858R in the test with EGFR-Wt [1] came out at 0.47. In the test with EGFR-Wt [2], the EGFR-Wt mean came out at 2.62. For the same molecule, the EGFR-L858R mean with EGFR-L858R is on record as 5.58.
